Substitutions are numbered along the chain they refer to.

The labels stand for the following.
B1: GLS3000 F55L (antibody, name in Kabat numbering, V domains shown)
VH: QVQLVESGGGVVQPGRSLRLSCAASGFTFSNAWMHWVRQAPGKGLEWVAQIKAKSNNYATYYAESVKGRFTISRDDSKNSLYLQMNSLKTEDTAVYYCRYVHYGAYYGVDAWGQGTTVTVSS
VL: DIVMTQSPLSLPVTPGEPASISCRSSQSLVHSNRNTYLHWYQQKPGQAPRLLIYKVSNRLSGVPDRFSGSGSGTDFTLKISRVEAEDVGVYYCGQGTQVPYTFGQGTKLEIK
notes: one-arm format as m2
B2: GLS3000 F55N (antibody, name in Kabat numbering, V domains shown)
VH: B1 VH
VL: B1 VL with L60N
notes: one-arm format as m2
B3: GLS3000 F55S (antibody, name in Kabat numbering, V domains shown)
VH: B1 VH
VL: B1 VL with L60S
notes: one-arm format as m2
B4: GLS3000 G89W (antibody, name in Kabat numbering, V domains shown)
VH: B1 VH
VL: B1 VL with L60F, G94W
notes: one-arm format as m2
B5: GLS3000 G89N (antibody, name in Kabat numbering, V domains shown)
VH: B1 VH
VL: B1 VL with L60F, G94N
notes: one-arm format as m2
B6: GLS3000 H27dL (antibody, name in Kabat numbering, V domains shown)
VH: B1 VH
VL: B1 VL with H31L, L60F
notes: one-arm format as m2
B7: GLS3000 H27dG (antibody, name in Kabat numbering, V domains shown)
VH: B1 VH
VL: B1 VL with H31G, L60F
notes: one-arm format as m2
B8: GLS3000 G89F (antibody, name in Kabat numbering, V domains shown)
VH: B1 VH
VL: B1 VL with L60F, G94F
notes: one-arm format as m2
B9: GLS3000 G89E (antibody, name in Kabat numbering, V domains shown)
VH: B1 VH
VL: B1 VL with L60F, G94E
notes: one-arm format as m2
B10: GLS3000 H27dD (antibody, name in Kabat numbering, V domains shown)
VH: B1 VH
VL: B1 VL with H31D, L60F
notes: one-arm format as m2
B11: GLS3000 F55V (antibody, name in Kabat numbering, V domains shown)
VH: B1 VH
VL: B1 VL with L60V
notes: one-arm format as m2
B12: GLS3000 G89T (antibody, name in Kabat numbering, V domains shown)
VH: B1 VH
VL: B1 VL with L60F, G94T
notes: one-arm format as m2
B13: GLS3000 F55T (antibody, name in Kabat numbering, V domains shown)
VH: B1 VH
VL: B1 VL with L60T
notes: one-arm format as m2
B14: GLS3000 F55Q (antibody, name in Kabat numbering, V domains shown)
VH: B1 VH
VL: B1 VL with L60Q
notes: one-arm format as m2
B15: GLS3000 G89Y (antibody, name in Kabat numbering, V domains shown)
VH: B1 VH
VL: B1 VL with L60F, G94Y
notes: one-arm format as m2
B16: GLS3000 G89M (antibody, name in Kabat numbering, V domains shown)
VH: B1 VH
VL: B1 VL with L60F, G94M
notes: one-arm format as m2
B17: GLS3000 G89R (antibody, name in Kabat numbering, V domains shown)
VH: B1 VH
VL: B1 VL with L60F, G94R
notes: one-arm format as m2
B18: GLS3000 G91D (antibody, name in Kabat numbering, V domains shown)
VH: B1 VH
VL: B1 VL with L60F, G96D
notes: one-arm format as m2
B19: GLS3000 G91E (antibody, name in Kabat numbering, V domains shown)
VH: B1 VH
VL: B1 VL with L60F, G96E
notes: one-arm format as m2
B20: GLS3000 G91Y (antibody, name in Kabat numbering, V domains shown)
VH: B1 VH
VL: B1 VL with L60F, G96Y
notes: one-arm format as m2
B21: GLS3000 G91S (antibody, name in Kabat numbering, V domains shown)
VH: B1 VH
VL: B1 VL with L60F, G96S
notes: one-arm format as m2
B22: GLS3000 G89Q (antibody, name in Kabat numbering, V domains shown)
VH: B1 VH
VL: B1 VL with L60F, G94Q
notes: one-arm format as m2
B23: GLS3000 F55R (antibody, name in Kabat numbering, V domains shown)
VH: B1 VH
VL: B1 VL with L60R
notes: one-arm format as m2
B24: GLS3000 G89I (antibody, name in Kabat numbering, V domains shown)
VH: B1 VH
VL: B1 VL with L60F, G94I
notes: one-arm format as m2
B25: GLS3000 G89V (antibody, name in Kabat numbering, V domains shown)
VH: B1 VH
VL: B1 VL with L60F, G94V
notes: one-arm format as m2
B26: GLS3000 H27dI (antibody, name in Kabat numbering, V domains shown)
VH: B1 VH
VL: B1 VL with H31I, L60F
notes: one-arm format as m2
B27: GLS3000 F55W (antibody, name in Kabat numbering, V domains shown)
VH: B1 VH
VL: B1 VL with L60W
notes: one-arm format as m2
B28: GLS3000 H27dF (antibody, name in Kabat numbering, V domains shown)
VH: B1 VH
VL: B1 VL with H31F, L60F
notes: one-arm format as m2
B29: GLS3000 G89L (antibody, name in Kabat numbering, V domains shown)
VH: B1 VH
VL: B1 VL with L60F, G94L
notes: one-arm format as m2
B30: GLS3000 H27dK (antibody, name in Kabat numbering, V domains shown)
VH: B1 VH
VL: B1 VL with H31K, L60F
notes: one-arm format as m2
B31: GLS3000 F55P (antibody, name in Kabat numbering, V domains shown)
VH: B1 VH
VL: B1 VL with L60P
notes: one-arm format as m2
B32: GLS3000 H27dE (antibody, name in Kabat numbering, V domains shown)
VH: B1 VH
VL: B1 VL with H31E, L60F
notes: one-arm format as m2
B33: GLS3000 G89H (antibody, name in Kabat numbering, V domains shown)
VH: B1 VH
VL: B1 VL with L60F, G94H
notes: one-arm format as m2
B34: GLS3000 G91T (antibody, name in Kabat numbering, V domains shown)
VH: B1 VH
VL: B1 VL with L60F, G96T
notes: one-arm format as m2
B35: GLS3000 G89A (antibody, name in Kabat numbering, V domains shown)
VH: B1 VH
VL: B1 VL with L60F, G94A
notes: one-arm format as m2
B36: GLS3000 H27dA (antibody, name in Kabat numbering, V domains shown)
VH: B1 VH
VL: B1 VL with H31A, L60F
notes: one-arm format as m2
B37: GLS3000 G89D (antibody, name in Kabat numbering, V domains shown)
VH: B1 VH
VL: B1 VL with L60F, G94D
notes: one-arm format as m2
B38: GLS3000 F55Y (antibody, name in Kabat numbering, V domains shown)
VH: B1 VH
VL: B1 VL with L60Y
notes: one-arm format as m2
B39: GLS3000 G91P (antibody, name in Kabat numbering, V domains shown)
VH: B1 VH
VL: B1 VL with L60F, G96P
notes: one-arm format as m2
B40: GLS3000 G89K (antibody, name in Kabat numbering, V domains shown)
VH: B1 VH
VL: B1 VL with L60F, G94K
notes: one-arm format as m2
B41: GLS3000 F55M (antibody, name in Kabat numbering, V domains shown)
VH: B1 VH
VL: B1 VL with L60M
notes: one-arm format as m2
B42: GLS3000 G89P (antibody, name in Kabat numbering, V domains shown)
VH: B1 VH
VL: B1 VL with L60F, G94P
notes: one-arm format as m2
B43: GLS3000 G91A (antibody, name in Kabat numbering, V domains shown)
VH: B1 VH
VL: B1 VL with L60F, G96A
notes: one-arm format as m2

For this assay, the target named is CD3ε homodimer protein (human, UniProt P07766 23-126, limits assumed). Description: SPR, immobilized CD3ε homodimer.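 Note: biacore T200 surface plasmon resonance at 25 °C, antibody variants flowed as analytes over amine-coupled CD3ε homodimer on a CM4 chip, variant binding amount divided by that of GLS3000 antibody.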
Chain of CD3ε homodimer protein (P07766 23-126 limits assumed): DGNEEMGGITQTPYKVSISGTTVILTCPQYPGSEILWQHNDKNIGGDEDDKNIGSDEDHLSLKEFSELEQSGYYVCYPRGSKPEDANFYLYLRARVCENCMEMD
For the molecule B1, the “ratio of amounts bound (vs GLS3000)” value was determined as 0.76.
Regarding B2, the “ratio of amounts bound (vs GLS3000)” value is 0.98.
For the molecule B3, the “ratio of amounts bound (vs GLS3000)” value is 0.69.
B4: the “ratio of amounts bound (vs GLS3000)” value was determined as 0.5.
In the case of B5, the “ratio of amounts bound (vs GLS3000)” value is 0.8.
The result for B6 reads 0.3; that for B7, 0.3; that for B8, 1.09.
For the molecule B9, the “ratio of amounts bound (vs GLS3000)” value was 0.26.
As to B10, the “ratio of amounts bound (vs GLS3000)” value was 0.22.
As to B11, the “ratio of amounts bound (vs GLS3000)” value came to 0.71.
With B12, the “ratio of amounts bound (vs GLS3000)” value was 1.03.
Consider B13, for which the “ratio of amounts bound (vs GLS3000)” value was 0.41.
With B14 the figure was 0.91; with B15, 1.19.
For B16, the “ratio of amounts bound (vs GLS3000)” value stood at 0.52.
Regarding B17, the “ratio of amounts bound (vs GLS3000)” value stood at 0.19.
Consider B18, for which the “ratio of amounts bound (vs GLS3000)” value stood at 0.16.
Turning to B19, the “ratio of amounts bound (vs GLS3000)” value is 0.16.
In the case of B20, the “ratio of amounts bound (vs GLS3000)” value was found to be 0.17.
The result for B21 reads 0.26; that for B22, 0.38.
B23: the “ratio of amounts bound (vs GLS3000)” value came out at 1.31.
With B24 the figure was 1.07; with B25, 1.63; with B26, 0.26.
As for B27, the “ratio of amounts bound (vs GLS3000)” value was 0.69.
The result for B28 reads 0.63.
Take B29: the “ratio of amounts bound (vs GLS3000)” value is 0.94.
Turning to B30, the “ratio of amounts bound (vs GLS3000)” value is 0.29.
For B31, the “ratio of amounts bound (vs GLS3000)” value stood at 1.16.
The result for B32 reads 0.23; that for B33, 0.7; that for B34, 0.26.
On to B35, for which the “ratio of amounts bound (vs GLS3000)” value worked out at 1.13.
For the molecule B36, the “ratio of amounts bound (vs GLS3000)” value worked out at 0.48.
On to B37, for which the “ratio of amounts bound (vs GLS3000)” value is 0.33.
As for B38, the “ratio of amounts bound (vs GLS3000)” value was 0.92.
For the molecule B39, the “ratio of amounts bound (vs GLS3000)” value was 0.27.
Regarding B40, the “ratio of amounts bound (vs GLS3000)” value came to 0.4.
On to B41, for which the “ratio of amounts bound (vs GLS3000)” value came to 0.8.
In the case of B42, the “ratio of amounts bound (vs GLS3000)” value was 0.35.
For B43, the “ratio of amounts bound (vs GLS3000)” value was 0.27.

Values taken from patent publication US20220040297A1 (Chugai, published 2022).
